Measurements from publication PMC6086891, “Adenosine Kinase couples sensing of cellular potassium depletion to purine metabolism” (Scientific Reports, 2018).

Substrate: Nc1ncnc2c1ncn2[C@@H]1O[C@H](COP(=O)(O)OP(=O)(O)OP(=O)(O)O)[C@@H](O)[C@H]1O
Experiment: purified protein
Format: biochemical, Mus musculus
Conditions: Mg2+ BS1 (ATP site); adenosine competes with ATP

B1: Adenosine Kinase (mADK) (Mus musculus) (protein)
chain: MAAADEPKPKKLKVEAPQALSENVLFGMGNPLLDISAVVDKDFLDKYSLKPNDQILAEDKHKELFDELVKKFKVEYHAGGSTQNSMKVAQWLIQEPHKAATFFGCIGIDKFGEILKRKAADAHVDAHYYEQNEQPTGTCAACITGGNRSLVANLAAANCYKKEKHLDLERNWVLVEKARVYYIAGFFLTVSPESVLKVARYAAENNRVFTLNLSAPFISQFFKEALMDVMPYVDILFGNETEAATFAREQGFETKDIKEIAKKAQALPKVNSKRQRTVIFTQGRDDTIVAAENDVTAFPVLDQNQEEIIDTNGAGDAFVGGFLSQLVSDKPLTECIRAGHYAASVIIRRTGCTFPEKPDFH
  Km: 2.1 µM
